# Numbering of substitutions follows the chain as printed.
# B1: HC2-LC2 (antibody, V domains shown)
# VH: EVQLVESGGGLVQPGGSLRLSCAASGFTFNNYWMSWVRQAPGKGLEWVASISNIGGTIYYPDSVKGRFTISRDSAKNSLYLQMNSLRAEDTAVYYCTRDLRMSDYFDYWGQGTLVTVSS
# VL: QFVLTQPHSVSESPGKTVTISCKRSTGNIGSNYVSWYQQRPGSSPTTVIYRDDQRPSGVPDRFSGSIDRSSNSASLTISGLKTEDEADYYCHSYSTGMYIFGGGTKLTVL
# B2: HC2-LC3 (antibody, V domains shown)
# VH: B1 VH
# VL: B1 VL with V3M, K23T, S44A, G80R
# B3: HC1-LC1 (antibody, V domains shown)
# VH: B1 VH with S74N
# VL: B1 VL with Q1N, V3M, K23T
# B4: HC1-LC2 (antibody, V domains shown)
# VH: B1 VH with S74N
# VL: B1 VL
# B5: HC1-LC3 (antibody, V domains shown)
# VH: B1 VH with S74N
# VL: B1 VL with V3M, K23T, S44A, G80R
# Biological target: Pfs48/45 6C domain (NF54) (Plasmodium falciparum NF54, UniProt V5NSK3)
row,Binder,binding result
1,B1,binds
2,B2,binds
3,B3,binds
4,B4,binds
5,B5,binds
